Results from article PMC10699845, “Light quality regulates plant biomass and fruit quality through a photoreceptor-dependent HY5-LHC/CYCB module in tomato”.

T1: SlHY5 (Solanum lycopersicum, UniProt Q9SM50 1-158)
T1 sequence: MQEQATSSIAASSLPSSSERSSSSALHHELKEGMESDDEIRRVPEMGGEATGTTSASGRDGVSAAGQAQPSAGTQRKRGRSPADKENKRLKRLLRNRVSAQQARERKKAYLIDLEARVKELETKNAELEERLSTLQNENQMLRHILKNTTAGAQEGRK

B1: SlLHCB probe (dsDNA)
DNA 1: CTGCTTAGTTGTACGTCTTGTAATCCTC
DNA 2: GAGGATTACAAGACGTACAACTAAGCAG
B2: SlCYCB-m probe (dsDNA)
DNA 1: ACGTGTTTATTTTTTACTTTAAGATTTTG
DNA 2: CAAAATCTTAAAGTAAAAAATAAACACGT
B3: SlCYCB probe (dsDNA)
DNA 1: ACGTGTTTATTTTTTACTTTAAGAACGTG
DNA 2: CACGTTCTTAAAGTAAAAAATAAACACGT
B4: SlLHCA-m probe (dsDNA)
DNA 1: CAAATTGGTGACATTTTACATTCTGGCA
DNA 2: TGCCAGAATGTAAAATGTCACCAATTTG
B5: SlLHCB-m probe (dsDNA)
DNA 1: CTGCTTAGTTGTTTTTCTTGTAATCCTC
DNA 2: GAGGATTACAAGAAAAACAACTAAGCAG
B6: SlLHCA probe (dsDNA)
DNA 1: CAAATTGGTGACAACGTACATTCTGGCA
DNA 2: TGCCAGAATGTACGTTGTCACCAATTTG

What follows are binders tested against T1, SlHY5 (assay: EMSA; LightShift Chemiluminescent EMSA kit (Thermo 20148); buffer, salt, pH and temperature not stated). Conditions: protein: recombinant, tags: His, chain copies: 2, blunt.

Binding result, no binding:
B2, B4, B5

Binding result, binds:
B1, B3, B6
